Values of other authors, collected in patent publication US20120064039A1, “Use of Guanylyl Cyclase C Agonists to Suppress Appetite” (priority 2009, published 2012).

Molecular target: ST receptors (guanylate cyclase) (Homo sapiens, UniProt P25092)
Details: relative to native ST; about

Chain of ST receptors (guanylate cyclase) (P25092 24-1073): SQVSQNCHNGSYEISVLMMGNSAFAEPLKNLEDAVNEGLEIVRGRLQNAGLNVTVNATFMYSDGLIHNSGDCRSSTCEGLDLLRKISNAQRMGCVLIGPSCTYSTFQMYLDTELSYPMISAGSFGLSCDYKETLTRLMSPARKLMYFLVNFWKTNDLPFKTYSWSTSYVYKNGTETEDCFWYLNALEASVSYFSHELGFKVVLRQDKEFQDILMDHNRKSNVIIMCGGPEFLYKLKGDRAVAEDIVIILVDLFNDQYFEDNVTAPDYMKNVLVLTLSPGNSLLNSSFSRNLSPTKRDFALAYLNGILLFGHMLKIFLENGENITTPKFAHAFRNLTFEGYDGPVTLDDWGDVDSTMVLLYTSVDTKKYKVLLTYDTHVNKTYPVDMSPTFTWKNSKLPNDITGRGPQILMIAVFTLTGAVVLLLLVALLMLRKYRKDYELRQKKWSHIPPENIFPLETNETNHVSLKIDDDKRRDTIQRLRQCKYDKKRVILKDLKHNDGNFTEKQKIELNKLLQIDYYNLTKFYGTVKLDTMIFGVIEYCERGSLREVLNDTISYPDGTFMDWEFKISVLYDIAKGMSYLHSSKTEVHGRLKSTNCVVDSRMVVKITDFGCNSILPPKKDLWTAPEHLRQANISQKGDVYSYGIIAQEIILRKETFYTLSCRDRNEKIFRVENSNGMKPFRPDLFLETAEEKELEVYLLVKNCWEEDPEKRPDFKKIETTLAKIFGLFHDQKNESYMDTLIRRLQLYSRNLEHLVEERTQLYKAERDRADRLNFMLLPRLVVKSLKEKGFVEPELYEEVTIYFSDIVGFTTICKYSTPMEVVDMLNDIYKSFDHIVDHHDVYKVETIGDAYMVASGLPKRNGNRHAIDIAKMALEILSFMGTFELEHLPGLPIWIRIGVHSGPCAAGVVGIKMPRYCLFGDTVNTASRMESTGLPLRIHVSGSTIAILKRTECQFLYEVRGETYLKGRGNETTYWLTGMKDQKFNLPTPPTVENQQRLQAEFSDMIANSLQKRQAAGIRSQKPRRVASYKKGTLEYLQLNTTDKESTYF

Substance: guanylin (PNTCEICAYAACTGC; listed as Rattus norvegicus) [native GCC ligand]
- activates guanylate cyclase at a level less than native ST: 10- to 100 fold
